Measured values published in US20260234255A1 (Genmab, published 2026).
Positions count from the first letter of the chain named. Names may count otherwise.

Legend:
human CD30 [1] = molecular target: T1, human CD30 (human, UniProt P28908 19-595); test: flow cytometry, SU-DHL-1 cells
T1 construct: also called huCD30; TNFRSF8
T1 sequence: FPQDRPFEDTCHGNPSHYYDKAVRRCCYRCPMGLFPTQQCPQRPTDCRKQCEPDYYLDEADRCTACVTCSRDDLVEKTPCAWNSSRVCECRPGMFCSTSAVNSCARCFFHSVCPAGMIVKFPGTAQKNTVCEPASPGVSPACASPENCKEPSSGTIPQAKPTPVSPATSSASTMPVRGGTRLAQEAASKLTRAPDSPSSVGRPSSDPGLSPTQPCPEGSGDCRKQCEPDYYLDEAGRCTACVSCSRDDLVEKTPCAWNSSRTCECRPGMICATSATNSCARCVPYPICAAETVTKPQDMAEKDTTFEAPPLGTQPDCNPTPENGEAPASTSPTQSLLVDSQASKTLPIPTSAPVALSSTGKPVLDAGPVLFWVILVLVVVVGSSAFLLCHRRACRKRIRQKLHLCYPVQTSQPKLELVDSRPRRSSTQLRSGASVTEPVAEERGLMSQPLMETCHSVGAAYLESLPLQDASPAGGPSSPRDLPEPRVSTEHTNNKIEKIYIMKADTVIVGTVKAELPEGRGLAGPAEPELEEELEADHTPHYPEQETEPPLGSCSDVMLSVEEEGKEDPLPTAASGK
In short: (§1)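 CD3×CD30 bispecific antibodies, serially diluted 3-fold from 10 to 0.0046 μg/mL, were incubated with 3×10⁴ cells/well at 4° C for 30 min, then with a secondary antibody at 4° C for 30 min. Live cells were gated by FSC/SSC and TO-PRO-3 exclusion, and curves were fitted by four-parameter sigmoidal regression.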

[2] = molecular target: T2, rhesus monkey (Macaca mulatta) CD30 (rhesus monkey, UniProt P28908 19-595 (human entry)); test: flow cytometry, Expi293F cells transfected with rhesus monkey CD30
T2 construct: also called mmCD30
T2 chain: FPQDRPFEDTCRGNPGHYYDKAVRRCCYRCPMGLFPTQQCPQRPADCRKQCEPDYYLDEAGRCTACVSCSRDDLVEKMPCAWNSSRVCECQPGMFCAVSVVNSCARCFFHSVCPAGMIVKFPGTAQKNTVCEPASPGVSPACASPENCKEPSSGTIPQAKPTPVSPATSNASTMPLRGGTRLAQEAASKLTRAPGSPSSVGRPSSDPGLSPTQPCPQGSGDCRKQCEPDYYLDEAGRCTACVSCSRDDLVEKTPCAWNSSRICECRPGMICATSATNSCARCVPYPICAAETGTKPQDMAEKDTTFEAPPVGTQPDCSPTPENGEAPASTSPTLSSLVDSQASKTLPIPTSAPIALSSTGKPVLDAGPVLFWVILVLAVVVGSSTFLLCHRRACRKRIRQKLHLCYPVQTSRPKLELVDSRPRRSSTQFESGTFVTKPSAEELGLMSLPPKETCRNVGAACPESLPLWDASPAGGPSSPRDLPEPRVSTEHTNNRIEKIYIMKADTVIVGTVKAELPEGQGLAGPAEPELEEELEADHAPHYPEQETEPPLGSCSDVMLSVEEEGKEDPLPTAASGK

human CD30 [3] = molecular target: T1, human CD30; test: flow cytometry, HDLM-2 cells
In short: as §1

human CD30 [4] = molecular target: T1, human CD30; test: flow cytometry, Expi293F cells transfected with human CD30
Experimental: (§2) Cells (3×10⁴ cells/well) were incubated in polystyrene 96-well round-bottom plates (Greiner bio-one, cat. no. 650180) with serial dilutions of antibodies (ranging from 0.005 to 10 μg/mL in 3-fold dilution steps) in 100 μL staining buffer at 4° C. for 30 min. Experiments were performed in technical duplicate. After washing twice in staining buffer, cells were incubated in 50 μL secondary antibody at 4° C. for 30 min. As a secondary antibody, R-PE-conjugated goat-anti-human IgG (Jackson ImmunoResearch, UK; cat. no. 109⁻¹¹⁶-098) diluted 1:400 in staining buffer was used. Cells were washed twice in staining buffer, resuspended in 30 μL staining buffer containing 0.4% EDTA and analyzed on an iQue Screener (Intellicyt Corporation, USA). Binding curves were analyzed using non-linear regression (sigmoidal dose-response with variable slope) using GraphPad Prism V9.0.0 software (GraphPad Software, San Diego, CA, USA).

human CD30 [5] = molecular target: T1, human CD30; test: as above
Experimental: Data are presented as mean fluorescence intensity (MFI) values as determined by flow cytometry of two technical replicates. […] Data are presented as mean fluorescence intensity (MFI) values as determined by flow cytometry of one representative experiment.
Binding of bispecific CD3×CD30 antibodies and monospecific, bivalent CD30 antibodies to the plasma membrane of Expi293 cells transiently transfected with human CD30 or cynomolgus monkey CD30 was analyzed by flow cytometry.

[6] = molecular target: T3, cynomolgus monkey (Macaca fascicularis) CD30 (cynomolgus monkey, UniProt P28908 19-595 (human entry)); test: flow cytometry, Expi293F cells transfected with cynomolgus monkey CD30 (mfCD30)
T3 construct: also called mfCD30
T3 chain: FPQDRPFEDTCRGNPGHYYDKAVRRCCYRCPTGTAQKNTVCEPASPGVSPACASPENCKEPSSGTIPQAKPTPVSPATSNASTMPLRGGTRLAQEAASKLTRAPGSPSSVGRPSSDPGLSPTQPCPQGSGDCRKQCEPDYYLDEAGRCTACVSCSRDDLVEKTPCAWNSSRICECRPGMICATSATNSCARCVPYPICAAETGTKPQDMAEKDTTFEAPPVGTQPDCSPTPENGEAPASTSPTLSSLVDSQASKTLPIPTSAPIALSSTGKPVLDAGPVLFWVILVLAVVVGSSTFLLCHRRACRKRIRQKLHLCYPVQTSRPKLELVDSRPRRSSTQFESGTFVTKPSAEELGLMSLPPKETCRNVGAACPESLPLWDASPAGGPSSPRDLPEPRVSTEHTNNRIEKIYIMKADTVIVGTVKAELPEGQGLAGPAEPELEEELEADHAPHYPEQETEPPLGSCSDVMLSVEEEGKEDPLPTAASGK
Experimental: as §2

human CD30 [7] = molecular target: T1, human CD30; test: flow cytometry, SR-786 cells
human CD30 [8] = molecular target: T1, human CD30; test: flow cytometry, DL-40 cells
human CD30 [9] = molecular target: T1, human CD30; test: flow cytometry, L-540 cells
human CD30 [10] = molecular target: T1, human CD30; test: flow cytometry, HH cells
Experimental: Cells (3×10⁴ cells/well) were incubated in polystyrene 96-well round-bottom plates (Greiner bio-one, cat. no. 650180) with serial dilutions of antibodies (range 0.0046 to 10 μg/mL in 3-fold dilution steps) in 50 μL staining buffer at 4° C. for 30 min. After washing twice in staining buffer, cells were incubated with 50 μL secondary antibody at 4° C. for 30 min. […] Next, cells were washed twice in staining buffer, resuspended in 100 μL staining buffer supplemented with TO-PRO-3 iodide (Thermo Fisher Scientific; cat. no. T3605; 1:8000 dilution) and analyzed on a FACSCelesta flow cytometer (BD Biosciences, USA). Live cells were gated based on FSC/SSC and absence of TOPRO-3 staining. Binding curves were analyzed by non-linear regression of log-transformed data (sigmoidal dose-response with variable slope, four parameters) using GraphPad Prism V7.02 software (GraphPad Software, San Diego, CA, USA).

human CD30 [11] = molecular target: T1, human CD30; test: flow cytometry, JVM-2 cells
human CD30 [12] = molecular target: T1, human CD30; test: flow cytometry, SUP-M2 cells
human CD30 [13] = molecular target: T1, human CD30; test: flow cytometry, L-1236 cells
human CD30 [14] = molecular target: T1, human CD30; test: flow cytometry, L-82 cells
human CD30 [15] = molecular target: T1, human CD30; test: flow cytometry, KM-H2 cells
human CD30 [16] = molecular target: T1, human CD30; test: flow cytometry, NCEB-1 cells

B1: IgG1-CD30-T408-FEAR (antibody, V domains shown)
VH: QVQLQQPGAELVRPGASVKLSCKASGYTFTSYWINWVKQRPGQGLEWIGNIYPSDSYSNYNQKFKDKATLTVDKSSSTAYMQLSSPTSEDSAVYYCTLGSYWGQGTLVTVSA
VL: not shown
notes: Monospecific, bivalent parental antibody
EC50 (read off the curve) (human CD30 [1]): ~0.6 mg/L | EC50 (read off the curve) [2]: ~0.4 mg/L | EC50 (read off the curve) (human CD30 [3]): ~1 mg/L | EC50 (read off the curve) (human CD30 [4]): ~0.2 mg/L

B2: bsG1-huCD3-H101G-FEALxCD30-MDX060-FEAR (bispecific antibody, human IgG1, kappa, lambda)
heavy 1: not shown
light 1: not shown
heavy 2: QVQLQQWGAGLLKPSETLSLTCAVYGGSFSAYYWSWIRQPPGKGLEWIGDINHGGGTNYNPSLKSRVTISVDTSKNQFSLKLNSVTAADTAVYYCASLTAYWGQGSLVTVSSASTKGPSVFPLAPSSKSTSGGTAALGCLVKDYFPEPVTVSWNSGALTSGVHTFPAVLQSSGLYSLSSVVTVPSSSLGTQTYICNVNHKPSNTKVDKRVEPKSCDKTHTCPPCPAPEFEGGPSVFLFPPKPKDTLMISRTPEVTCVVVAVSHEDPEVKFNWYVDGVEVHNAKTKPREEQYNSTYRVVSVLTVLHQDWLNGKEYKCKVSNKALPAPIEKTISKAKGQPREPQVYTLPPSREEMTKNQVSLTCLVKGFYPSDIAVEWESNGQPENNYKTTPPVLDSDGSFFLYSRLTVDKSRWQQGNVFSCSVMHEALHNHYTQKSLSLSPG
light 2: DIQMTQSPTSLSASVGDRVTITCRASQGISSWLTWYQQKPEKAPKSLIYAASSLQSGVPSRFSGSGSGTDFTLTISSLQPEDFATYYCQQYDSYPITFGQGTRLEIKRTVAAPSVFIFPPSDEQLKSGTASVVCLLNNFYPREAKVQWKVDNALQSGNSQESVTEQDSKDSTYSLSSTLTLSKADYEKHKVYACEVTHQGLSSPVTKSFNRGEC
notes: Variant of m7 whose CD3 arm carries H101G
binding result (human CD30 [5]): binds | binding result [6]: binds

B3: bsG1-b12-FEALxCD30-MDX060-FERR (bispecific antibody, human IgG1, kappa)
heavy 1: QVQLVQSGAEVKKPGASVKVSCQASGYRFSNFVIHWVRQAPGQRFEWMGWINPYNGNKEFSAKFQDRVTFTADTSANTAYMELRSLRSADTAVYYCARVGPYSWDDSPQDNYYMDVWGKGTTVIVSSASTKGPSVFPLAPSSKSTSGGTAALGCLVKDYFPEPVTVSWNSGALTSGVHTFPAVLQSSGLYSLSSVVTVPSSSLGTQTYICNVNHKPSNTKVDKRVEPKSCDKTHTCPPCPAPEFEGGPSVFLFPPKPKDTLMISRTPEVTCVVVAVSHEDPEVKFNWYVDGVEVHNAKTKPREEQYNSTYRVVSVLTVLHQDWLNGKEYKCKVSNKALPAPIEKTISKAKGQPREPQVYTLPPSREEMTKNQVSLTCLVKGFYPSDIAVEWESNGQPENNYKTTPPVLDSDGSFLLYSKLTVDKSRWQQGNVFSCSVMHEALHNHYTQKSLSLSPG
light 1: EIVLTQSPGTLSLSPGERATFSCRSSHSIRSRRVAWYQHKPGQAPRLVIHGVSNRASGISDRFSGSGSGTDFTLTITRVEPEDFALYYCQVYGASSYTFGQGTKLERKRTVAAPSVFIFPPSDEQLKSGTASVVCLLNNFYPREAKVQWKVDNALQSGNSQESVTEQDSKDSTYSLSSTLTLSKADYEKHKVYACEVTHQGLSSPVTKSFNRGEC
heavy 2: B2 heavy 2 with G231R, A260D
light 2: B2 light 2
notes: Monovalent CD30 control antibody
EC50 (read off the curve) (human CD30 [7]): ~0.3 mg/L | EC50 (read off the curve) (human CD30 [8]): ~0.3 mg/L | EC50 (read off the curve) (human CD30 [9]): ~0.5 mg/L | EC50 (read off the curve) (human CD30 [10]): ~0.4 mg/L | EC50 (read off the curve) (human CD30 [11]): ~0.1 mg/L | EC50 (read off the curve) (human CD30 [12]): ~0.2 mg/L | EC50 (read off the curve) (human CD30 [13]): ~0.2 mg/L | EC50 (read off the curve) (human CD30 [14]): ~0.2 mg/L | EC50 (read off the curve) (human CD30 [15]): ~0.1 mg/L | EC50 (read off the curve) (human CD30 [16]): ~0.2 mg/L
